Biological target: PUUV SP-mEGFP-Gc∆CT (Gc devoid of the cytoplasmic tail, labelled with mEGFP) (Puumala orthohantavirus (PUUV), strain Sotkamo/V-2969/81)
Assay: Number and Brightness (N&B) fluorescence fluctuation microscopy

Substance: PUUV SP-mEGFP-Gc∆CT (Gc devoid of the cytoplasmic tail, labelled with mEGFP) (domain or fragment)
- average multimerization: 1.4
- fraction of monomers (assuming a monomer-dimer equilibrium): 75 mol%

From PMC12298772
